The text below walks through data of patent US20140212431A1 (Genentech, published 2014).

Assay [1] concerns the target T1, recombinant human PCSK9 with a histidine (His)8 C-terminal tag (human, UniProt Q8NBP7 31-692, biotinylated in vitro (EZ-link Sulfo-NHS-biotinylation kit) where the assay names biotinylated PCSK9). As to the kind of experiment: cell-based or functional assay.
Assay [2] addresses T1, recombinant human PCSK9 with a …. As to the kind of experiment: SPR (Biacore 3000), EGF-Fc captured by anti-human Fc, PCSK9 injected, 1 mM CaCl2; SPR, 1 mM Ca^2+. In general terms: SPR reads the build-up and loss of mass on a sensor chip optically.
For assay [3] the target is unchanged. Kind of assay: biolayer interferometry (Octet RED 384), EGF-Fc on Fc biosensor, PCSK9 0-500 nM, 1 mM CaCl2, steady state fit; biolayer interferometry, steady state, 1 mM CaCl2. (In general: Biolayer interferometry detects binding as a change in optical thickness at a sensor tip.)

B1: EGFwt-Fc fusion protein (Fc fusion)
chain: not shown
notes: A single EGF-Fc protein contains two EGF domains; also called EGF-Fc (WT); EGF(A)-Fc; not shown: Fc domain of human IgG1 (C222-K443)
With B1, the “EC50: concentration that restored LDLR levels on the HepG2 cell surface to 50% of control” value in assay [1] was 11000 nM. Besides, the Kd (usually the equilibrium constant for the complex coming apart) in assay [2] turned out to be 935 nM; in assay [3], 900 nM.
